Data set [1] deals with the molecule itself. Put plainly: cryo-EM structure; BAF-Lamin A/C IgF-nucleosome complex, high gel mobility (fraction 1); BAF 3-fold, Lamin A/C IgF 6-fold over 0.93 uM nucleosome (193 bp DNA), 30 min 30 °C, GraFix with glutaraldehyde; 3.82 Å.
Data set [2] deals with T1, Lamin A/C IgF domain (411-566) (human, UniProt P02545 411-566).
T1 construct: Lamin A/C, human, residues 411-566 (IgF domain); MBP cut on-column with TEV protease; also called Lamin A/C (411-566); Ig-fold domain of Lamin A/C; source: E. coli Rosetta 2 (DE3), purified (amylose resin, Superdex 75); not shown: MBP, N-terminal, cleaved
T1 sequence (looked up): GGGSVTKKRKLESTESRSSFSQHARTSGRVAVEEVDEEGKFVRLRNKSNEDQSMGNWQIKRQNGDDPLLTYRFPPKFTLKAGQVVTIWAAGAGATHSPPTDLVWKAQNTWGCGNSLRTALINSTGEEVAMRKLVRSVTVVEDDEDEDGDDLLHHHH
The description is as above. As to conditions: both partners purified.

B1: Barrier-to-autointegration factor (BAF) (natural protein, human, UniProt O75531 1-89, looked up)
chain: MTTSQKHRDFVAEPMGEKPVGSLAGIGEVLGKKLEERGFDKAYVVLGQFLVLKKDEDLFREWLKDTCGANAKQSRDCFGCLREWCDAFL
notes: Barrier-to-autointegration factor (BAF), human, full length; His tag cut with thrombin; also called human BAF; full-length BAF; not shown: His6, N-terminal, cleaved
With B1, the binding result in data set [1] and in data set [2] was “binds” throughout.

These data come from article PMC11811190, “Cryo-EM structures of the BAF-Lamin A/C complex bound to nucleosomes” (Nature Communications, 2025).
